One molecule from article doi:10.1101/2020.10.19.346148 can be followed below.

One data set has as its target DNA-PKcs (human? (HeLa cells), UniProt P78527 1-4128). The data set is described as follows: cryo-EM structure.
Another data set deals with DNA-PKcs;Ku70;Ku80 (human? (HeLa cells);human?;human?, UniProt P78527;P12956;P13010 1-4128;1-609;1-732, ||). Briefly: cryo-EM structure.

Chain of DNA-PKcs (P78527 whole entry): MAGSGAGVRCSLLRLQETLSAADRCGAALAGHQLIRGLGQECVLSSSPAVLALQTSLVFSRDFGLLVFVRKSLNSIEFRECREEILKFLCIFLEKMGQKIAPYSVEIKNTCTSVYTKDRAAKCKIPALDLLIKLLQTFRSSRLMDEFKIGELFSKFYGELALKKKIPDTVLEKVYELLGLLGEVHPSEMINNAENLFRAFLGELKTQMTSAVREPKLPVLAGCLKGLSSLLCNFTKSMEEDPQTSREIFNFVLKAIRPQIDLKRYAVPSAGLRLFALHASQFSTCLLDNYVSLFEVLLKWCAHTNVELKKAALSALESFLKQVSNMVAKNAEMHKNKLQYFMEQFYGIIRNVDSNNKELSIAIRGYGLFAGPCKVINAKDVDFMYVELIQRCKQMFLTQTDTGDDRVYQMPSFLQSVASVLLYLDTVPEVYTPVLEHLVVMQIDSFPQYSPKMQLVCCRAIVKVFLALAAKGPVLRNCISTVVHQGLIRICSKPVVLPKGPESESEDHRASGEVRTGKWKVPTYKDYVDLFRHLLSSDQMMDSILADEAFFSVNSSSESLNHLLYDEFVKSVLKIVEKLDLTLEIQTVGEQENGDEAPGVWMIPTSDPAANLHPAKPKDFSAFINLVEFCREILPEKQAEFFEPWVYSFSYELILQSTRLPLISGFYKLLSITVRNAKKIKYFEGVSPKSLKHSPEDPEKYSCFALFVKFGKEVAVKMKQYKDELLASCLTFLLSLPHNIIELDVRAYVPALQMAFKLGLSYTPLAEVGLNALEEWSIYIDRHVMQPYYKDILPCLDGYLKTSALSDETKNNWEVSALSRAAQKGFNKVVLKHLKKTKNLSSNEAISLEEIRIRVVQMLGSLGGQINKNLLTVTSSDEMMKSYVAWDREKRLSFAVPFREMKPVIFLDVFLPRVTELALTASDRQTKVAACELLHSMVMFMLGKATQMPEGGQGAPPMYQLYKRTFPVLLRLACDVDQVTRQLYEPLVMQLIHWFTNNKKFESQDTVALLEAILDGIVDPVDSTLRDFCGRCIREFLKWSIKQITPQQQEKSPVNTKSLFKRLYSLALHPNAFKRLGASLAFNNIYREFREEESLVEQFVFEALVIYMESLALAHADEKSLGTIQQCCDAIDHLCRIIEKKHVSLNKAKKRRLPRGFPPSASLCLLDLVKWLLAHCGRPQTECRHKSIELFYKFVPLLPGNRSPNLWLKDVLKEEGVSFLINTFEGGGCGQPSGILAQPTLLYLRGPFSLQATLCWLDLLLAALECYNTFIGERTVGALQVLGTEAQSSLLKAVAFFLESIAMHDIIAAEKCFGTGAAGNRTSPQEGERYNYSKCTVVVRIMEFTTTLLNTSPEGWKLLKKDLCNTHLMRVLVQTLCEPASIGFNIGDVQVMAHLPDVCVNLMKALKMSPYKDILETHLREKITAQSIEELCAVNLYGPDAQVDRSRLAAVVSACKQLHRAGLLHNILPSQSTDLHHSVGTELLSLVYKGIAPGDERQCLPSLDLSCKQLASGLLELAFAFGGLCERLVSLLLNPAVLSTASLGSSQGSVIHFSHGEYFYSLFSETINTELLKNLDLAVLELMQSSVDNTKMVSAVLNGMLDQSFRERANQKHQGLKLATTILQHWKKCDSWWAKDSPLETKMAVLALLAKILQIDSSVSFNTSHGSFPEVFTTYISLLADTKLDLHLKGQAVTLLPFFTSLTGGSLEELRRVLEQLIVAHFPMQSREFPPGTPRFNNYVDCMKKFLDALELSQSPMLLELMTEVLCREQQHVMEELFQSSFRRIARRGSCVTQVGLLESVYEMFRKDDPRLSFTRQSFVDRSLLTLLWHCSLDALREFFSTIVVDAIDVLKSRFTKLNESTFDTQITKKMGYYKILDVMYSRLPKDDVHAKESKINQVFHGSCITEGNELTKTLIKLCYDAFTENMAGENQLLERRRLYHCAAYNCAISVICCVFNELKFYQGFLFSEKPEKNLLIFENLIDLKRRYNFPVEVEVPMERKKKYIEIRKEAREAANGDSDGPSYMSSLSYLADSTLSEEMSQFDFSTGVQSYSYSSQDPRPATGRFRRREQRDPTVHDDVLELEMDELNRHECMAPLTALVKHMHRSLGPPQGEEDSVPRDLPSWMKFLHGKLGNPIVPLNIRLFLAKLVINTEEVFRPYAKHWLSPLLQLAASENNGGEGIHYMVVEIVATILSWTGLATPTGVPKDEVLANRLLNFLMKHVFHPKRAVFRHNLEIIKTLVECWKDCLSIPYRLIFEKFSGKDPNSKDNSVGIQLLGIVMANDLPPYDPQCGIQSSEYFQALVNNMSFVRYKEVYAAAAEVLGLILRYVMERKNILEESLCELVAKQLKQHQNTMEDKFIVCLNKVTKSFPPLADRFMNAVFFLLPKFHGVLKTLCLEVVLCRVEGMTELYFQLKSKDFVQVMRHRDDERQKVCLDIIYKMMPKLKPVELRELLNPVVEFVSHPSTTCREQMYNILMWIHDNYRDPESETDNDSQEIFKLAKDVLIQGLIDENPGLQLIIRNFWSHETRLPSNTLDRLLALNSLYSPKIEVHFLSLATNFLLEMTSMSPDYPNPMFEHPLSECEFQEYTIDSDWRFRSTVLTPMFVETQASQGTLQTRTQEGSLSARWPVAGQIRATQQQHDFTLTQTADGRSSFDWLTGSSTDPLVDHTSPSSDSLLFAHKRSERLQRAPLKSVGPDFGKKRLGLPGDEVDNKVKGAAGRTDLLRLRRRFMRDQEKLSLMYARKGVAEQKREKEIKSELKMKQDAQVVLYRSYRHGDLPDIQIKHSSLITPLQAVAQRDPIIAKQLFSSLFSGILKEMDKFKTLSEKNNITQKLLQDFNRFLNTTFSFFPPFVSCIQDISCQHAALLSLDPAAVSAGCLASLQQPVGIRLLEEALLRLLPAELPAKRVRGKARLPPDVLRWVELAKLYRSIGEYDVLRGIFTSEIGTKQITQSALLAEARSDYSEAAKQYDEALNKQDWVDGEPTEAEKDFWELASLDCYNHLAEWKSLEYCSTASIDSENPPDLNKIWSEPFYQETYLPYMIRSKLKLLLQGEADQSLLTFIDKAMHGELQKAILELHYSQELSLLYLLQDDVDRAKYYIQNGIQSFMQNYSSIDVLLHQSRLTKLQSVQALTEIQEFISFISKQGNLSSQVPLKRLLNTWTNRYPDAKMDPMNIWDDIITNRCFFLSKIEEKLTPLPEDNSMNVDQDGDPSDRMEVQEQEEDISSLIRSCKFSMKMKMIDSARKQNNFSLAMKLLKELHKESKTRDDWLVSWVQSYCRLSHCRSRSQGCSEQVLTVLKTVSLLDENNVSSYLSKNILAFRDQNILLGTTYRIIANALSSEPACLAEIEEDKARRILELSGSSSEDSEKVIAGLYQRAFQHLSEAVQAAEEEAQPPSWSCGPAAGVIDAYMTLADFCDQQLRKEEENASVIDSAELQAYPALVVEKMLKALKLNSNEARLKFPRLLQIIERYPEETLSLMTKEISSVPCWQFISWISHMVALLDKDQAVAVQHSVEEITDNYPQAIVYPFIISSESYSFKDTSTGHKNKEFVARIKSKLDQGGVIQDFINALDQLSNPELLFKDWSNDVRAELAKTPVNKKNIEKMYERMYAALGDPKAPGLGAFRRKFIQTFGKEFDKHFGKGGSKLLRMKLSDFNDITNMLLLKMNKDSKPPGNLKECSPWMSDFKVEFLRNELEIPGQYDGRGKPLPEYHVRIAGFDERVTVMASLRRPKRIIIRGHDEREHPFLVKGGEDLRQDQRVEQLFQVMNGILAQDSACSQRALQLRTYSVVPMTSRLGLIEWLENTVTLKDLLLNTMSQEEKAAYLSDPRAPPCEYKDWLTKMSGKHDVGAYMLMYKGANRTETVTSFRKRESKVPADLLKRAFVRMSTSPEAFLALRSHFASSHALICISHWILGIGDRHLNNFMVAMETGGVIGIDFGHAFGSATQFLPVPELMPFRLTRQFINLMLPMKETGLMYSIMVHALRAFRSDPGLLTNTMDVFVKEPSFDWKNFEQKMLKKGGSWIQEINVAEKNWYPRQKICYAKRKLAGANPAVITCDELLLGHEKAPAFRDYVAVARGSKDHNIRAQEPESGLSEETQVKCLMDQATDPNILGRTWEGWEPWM

B1: 40 bp blunt DNA with two internal nicks (dsDNA)
DNA 1: GCATGCTCTACTGCTTCGATATCG
DNA 2: AAGCAGTAGAGCATGC
DNA 3: GCATGCTCTACTGCTTCGATATCG
DNA 4: AAGCAGTAGAGCATGC
As to B1, the binding result with DNA-PKcs and with DNA-PKcs;Ku70;Ku80 was “binds” each time.
